From PMC4210639

Target: FLRT^LRR (SPR test of FLRT^LRR-FLRT^LRR binding)
Assay: SPR

## FLRT^LRR (SPR test of FLRT^LRR-FLRT^LRR binding)
  Kd: > 100 µM
